Experimental data reported in publication PMC3590144, “Determination of the Structure of the Catabolic N-Succinylornithine Transaminase (AstC) from Escherichia coli” (PLoS ONE, 2013).

Legend:
Assay in all cases: purified protein
Details in all cases: PLP-reconstituted holo-enzyme, 200 µM alpha-ketoglutarate, 500 µM NAD+, 5 U GDH, 10 mM Tris-HCl pH 8.0
purified protein [1] = substrate: NCCC[C@H](N)C(=O)O
purified protein [2] = substrate: NCCC[C@H](NC(=O)CCC(=O)O)C(=O)O; assay type: biochemical, Escherichia coli
purified protein [3] = substrate: CC(=O)N[C@@H](CCCN)C(=O)O; assay type: biochemical, Escherichia coli

B1: AstC (Escherichia coli K-12) (protein)
chain: MSQPITRENFDEWMIPVYAPAPFIPVRGEGSRLWDQQGKEYIDFAGGIAVNALGHAHPELREALNEQASKFWHTGNGYTNEPVLRLAKKLIDATFADRVFFCNSGAEANEAALKLARKFAHDRYGSHKSGIVAFKNAFHGRTLFTVSAGGQPAYSQDFAPLPADIRHAAYNDINSASALIDDSTCAVIVEPIQGEGGVVPASNAFLQGLRELCNRHNALLIFDEVQTGVGRTGELYAYMHYGVTPDLLTTAKALGGGFPVGALLATEECARVMTVGTHGTTYGGNPLASAVAGKVLELINTPEMLNGVKQRHDWFVERLNTINHRYGLFSEVRGLGLLIGCVLNADYAGQAKQISQEAAKAGVMVLIAGGNVVRFAPALNVSEEEVTTGLDRFAAACEHFVSRGSS
notes: full-length, native untagged, no plasmid; purified from E. coli BL21(DE3) by Ni-NTA and size exclusion as apo-protein, reconstituted with PLP; about 406 residues; dimer
With B1 the Km (purified protein [1]) was 4,391 µM, the kcat (purified protein [1]) was 3.5 s⁻¹ and the kcat/Km (purified protein [1]) was 797 M⁻¹ s⁻¹. It also gave a Km (purified protein [2]) of 284 µM, a kcat (purified protein [2]) of 3 s⁻¹ and a kcat/Km (purified protein [2]) of 10600 M⁻¹ s⁻¹. It also gave a Km (purified protein [3]) of 338 µM, a kcat (purified protein [3]) of 4.7 s⁻¹ and a kcat/Km (purified protein [3]) of 13900 M⁻¹ s⁻¹.
